This is an account of results in patent US20230295308A1, “ANTAGONISTIC BIPARATOPIC ANTIBODIES THAT SPECIFICALLY BIND FIBROBLAST GROWTH FACTOR RECEPTOR 2 AND METHODS OF USING SAME” (The Broad Institute, Inc., priority 2020, published 2023).

What is called EC50 (read off the curve) is the concentration that produces a half-maximal response. Broadly, the Kd is the constant that tells how readily two partners part at equilibrium. Higher therefore signals weaker binding.

Entries after “also recorded” stand apart in the source; their conditions may differ.

Test [1] relates to FGFR2-PHDGH fusion expressing BaF3 cells. The experiment in a line: ligand stimulated (FGF10) growth of FGFR2-PHGDH fusion expressing BaF3 cells (FIG. 10). In kind it is cell-based. To be noted: FGF10 present. The procedure: FIG. 10 is a graph showing that antibodies C, D, E and F have activity against ligand stimulated growth of FGFR2-PHDGH fusion expressing BaF3 cells.
The growth of BaF3 cells expressing an FGFR2-PHDGH fusion was assayed in the presence of FGF ligand, FGF10. Antibodies C, D, E and F inhibited ligand stimulated growth of FGFR2-PHDGH fusion expressing BaF3 cells (FIG. 10). Based on the results reported herein above, antagonistic biparatopic antibodies are made using the FGFR2 antibody combinations shown in FIG. 11A. These combinations result in increased growth inhibition effects in oncogenic or cancer cells (e.g., transformed BaF3 cells) that overexpressed […]. Thus, antibodies that bind to epitopes have increased inhibitory and killing effects against cancer cells. Designs for antagonistic biparatopic antibodies are shown at FIGS. 11B and 11C. Advantageously, including complementary mutations in VH-VL and CH1-CL on one-half of the biparatopic antibody results in preferential heterodimeric pairing between two different chains rather than chains from the other half of the same antibody. Alternatively, a linker method is used to create scFab, scFv, or DuoBodies. In this method two antibody chains are each generated in different cells and mixed in vitro. Such methods are known in the art and described, for example, by K. Ding et al, March 2017, Appl. Microbiol. […]

For test [2], the system named is BaF3 cells overexpressing FGFR2-PHGDH. The test can be described thus: combination of BGJ398 and anti-FGFR2 bivalent antibody, isobolograms and Loewe scores (FIGS. 14, 15). In kind it is cell-based. To be noted: presence of FGF10, treated for 5 days. The source says: FIGS. 14B-14D provide isobolograms showing synergy between FGFR inhibitor and the anti-[…] bivalent antibody on the different days and supporting the results shown in FIG. 14A. FIG. 14B corresponds to 3 days after treatment with the BGJ398 inhibitor; FIG. 14C corresponds to 4 days after treatment with the BGJ398 inhibitor; and FIG. 14D corresponds to 5 days after treatment with the BGJ398 inhibitor. FIG. 14E provide Loewe scores showing synergy between the FGFR inhibitor and the anti-FGF2 bivalent antibody on the different days and supporting the results shown in FIG. 14A.
FIG. 15A presents charts showing synergy between the FGFR2 small molecule inhibitor BGJ398 and an anti-FGFR2 bivalent antibody (Antibody D) in the presence of FGF ligand (+FGF) in a cell-based assay using BaF3 cells overexpressing an FGFR2 fusion molecule (FGFR2-PHGDH) after 3, 4 and 5 days of treatment with the inhibitor and the antibody. […] FIGS. 15B-15D provide isobolograms showing synergy between the FGFR inhibitor and the anti-FGF2 bivalent antibody on the different days and supporting the results shown in FIG. 15A. FIG. 15B corresponds to 3 days after treatment with the BGJ398 inhibitor; FIG. 15C corresponds to 4 days after treatment with the BGJ398 inhibitor; and FIG. 15D corresponds to 5 days after treatment with the BGJ398 inhibitor. […]

For test [3], the target named is FGFR2 on SNU-16 gastric cancer cell line with FGFR2 amplification (UniProt P21802). The test can be described thus: FACS on SNU-16 cells, % No. of cells with FITC+.
Test [4] has the same target. The experiment in a line: FACS on SNU-16 cells, % cells with FITC+ [cont.].
For test [5], the target named is FGFR2b alpha IIIb antigen (UniProt P21802). The experiment in a line: SPR (Biacore), antibody immobilized, FGFR2b alpha IIIb in flow. In general terms: SPR reads the build-up and loss of mass on a sensor chip optically.
Test [6] deals with FGFR2 on SNU-16 gastric cancer cell line with FGFR2 amplification (UniProt P21802). The experiment in a line: FACS on SNU-16 cells, % cells with FITC+ against log antibody concentration; Kd printed in the legend box [cont.].

B1: 2B 1.3.12 (antibody, V domains shown)
VH: EVQLVESGGGLVQPGGSLRLSCAASGFPFTSTGISWVRQAPGKGLEWVGRTHLGDGSTNYADSVKGRFTISADTSKNTAYLQMNSLRAEDTAVYYCARTYGIYDTYDMYTEYVMDYWGQGTLVTVSS
VL: DIQMTQSPSSLSASVGDRVTITCRASQDVDTSLAWYKQKPGKAPKLLIYSASFLYSGVPSRFSGSGSGTDFTLTISSLQPEDFATYYCQQSTGHPQTFGQGTKVEIK
notes: the duobody scheme implies IgG1 with K409R or F405L; also called Antibody D; GE
Turning to B1, in test [1], the “inhibition of ligand stimulated growth of FGFR2-PHGDH fusion expressing BaF3 cells” value was “have activity; also recorded: inhibited”. The “synergy with BGJ398 in inhibiting FGFR2-PHGDH driven BaF3 cell growth” value in test [2] is “synergizes”. For the same molecule, the concentration giving a half-maximal response (EC50 (read off the curve)) in test [3] and in test [4] was 0.3 µg/mL throughout. Also, in test [5], the Binding Stoichiometry is 1.9. The Kd in test [6] came to 1.78 nM.
